Data reported in US20180140673A1 (Novo Nordisk, published 2018).
Residue numbers refer to the chain shown, from its start. Where two headings read alike, the source gives them in different places.

Columns and labels:
Experiment in all cases: cell-based or functional assay
[1] = molecular target: T1, FGFR1c receptor/BKL complex on differentiated mouse 3T3-L1 adipocytes (mouse, UniProt P16092 22-822; Q99N32 1-1043)
[2] = molecular target: T2, FGF receptor/BKL complex on HEK293 cells overexpressing human beta-klotho (BKL) (human, UniProt Q86Z14 1-1044)
[3] = molecular target: T1, FGFR1c receptor/BKL complex on …; remark: listed apart in the source
[4] = molecular target: T2, FGF receptor/BKL complex on HEK293 …; remark: listed apart in the source
[5] = molecular target: T2, FGF receptor/BKL complex on HEK293 …; remark: listed apart in the source

T2 sequence (Q86Z14 whole entry, one chain of several): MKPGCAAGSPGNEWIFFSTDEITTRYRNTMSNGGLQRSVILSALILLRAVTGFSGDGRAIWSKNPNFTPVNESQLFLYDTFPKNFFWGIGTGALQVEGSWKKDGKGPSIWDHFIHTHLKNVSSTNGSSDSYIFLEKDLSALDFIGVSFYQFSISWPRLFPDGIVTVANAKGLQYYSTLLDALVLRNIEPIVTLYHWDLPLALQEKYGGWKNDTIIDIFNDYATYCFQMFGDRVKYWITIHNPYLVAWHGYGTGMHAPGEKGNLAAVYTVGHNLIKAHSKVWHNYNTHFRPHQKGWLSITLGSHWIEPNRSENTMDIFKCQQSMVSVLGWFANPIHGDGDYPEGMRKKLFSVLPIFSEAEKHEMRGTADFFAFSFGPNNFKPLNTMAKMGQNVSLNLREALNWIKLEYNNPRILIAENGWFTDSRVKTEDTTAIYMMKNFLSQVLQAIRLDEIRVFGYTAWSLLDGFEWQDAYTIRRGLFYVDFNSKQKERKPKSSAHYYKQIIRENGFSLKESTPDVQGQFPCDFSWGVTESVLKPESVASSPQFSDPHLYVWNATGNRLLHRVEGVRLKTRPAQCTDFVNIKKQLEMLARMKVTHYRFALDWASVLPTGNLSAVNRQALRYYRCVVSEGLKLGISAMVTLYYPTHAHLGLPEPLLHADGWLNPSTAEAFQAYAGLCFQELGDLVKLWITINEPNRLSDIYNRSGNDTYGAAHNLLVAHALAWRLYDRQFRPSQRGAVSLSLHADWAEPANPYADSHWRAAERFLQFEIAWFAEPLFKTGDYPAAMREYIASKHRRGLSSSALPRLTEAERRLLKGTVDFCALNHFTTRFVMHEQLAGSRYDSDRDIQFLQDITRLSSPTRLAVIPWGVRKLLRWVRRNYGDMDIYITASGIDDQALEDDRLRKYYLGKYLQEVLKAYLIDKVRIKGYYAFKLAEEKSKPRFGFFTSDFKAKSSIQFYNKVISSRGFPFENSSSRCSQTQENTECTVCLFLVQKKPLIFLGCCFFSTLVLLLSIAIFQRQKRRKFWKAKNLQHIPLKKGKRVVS
T1 sequence (P16092 22-822, chain 1 of 2): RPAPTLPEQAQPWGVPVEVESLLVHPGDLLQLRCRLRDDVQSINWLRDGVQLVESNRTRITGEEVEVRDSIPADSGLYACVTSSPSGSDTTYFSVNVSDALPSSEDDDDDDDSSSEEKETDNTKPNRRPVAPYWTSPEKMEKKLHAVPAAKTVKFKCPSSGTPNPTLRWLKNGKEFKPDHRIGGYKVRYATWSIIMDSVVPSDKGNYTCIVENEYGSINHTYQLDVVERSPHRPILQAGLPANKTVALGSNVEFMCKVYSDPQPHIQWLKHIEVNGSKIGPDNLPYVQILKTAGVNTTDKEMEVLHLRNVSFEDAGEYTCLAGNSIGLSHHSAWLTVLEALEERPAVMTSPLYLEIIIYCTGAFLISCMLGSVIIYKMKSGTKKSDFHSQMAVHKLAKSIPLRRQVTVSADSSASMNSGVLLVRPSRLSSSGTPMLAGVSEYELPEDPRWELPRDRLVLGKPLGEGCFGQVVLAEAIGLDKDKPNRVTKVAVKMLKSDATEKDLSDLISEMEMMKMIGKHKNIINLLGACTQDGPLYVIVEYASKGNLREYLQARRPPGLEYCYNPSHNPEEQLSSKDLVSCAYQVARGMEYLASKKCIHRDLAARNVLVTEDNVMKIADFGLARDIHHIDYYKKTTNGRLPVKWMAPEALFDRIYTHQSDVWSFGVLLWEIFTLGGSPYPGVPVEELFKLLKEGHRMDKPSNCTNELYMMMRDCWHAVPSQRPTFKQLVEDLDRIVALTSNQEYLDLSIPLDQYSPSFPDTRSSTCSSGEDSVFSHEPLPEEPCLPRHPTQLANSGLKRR
T1 sequence (Q99N32 whole entry, chain 2 of 2): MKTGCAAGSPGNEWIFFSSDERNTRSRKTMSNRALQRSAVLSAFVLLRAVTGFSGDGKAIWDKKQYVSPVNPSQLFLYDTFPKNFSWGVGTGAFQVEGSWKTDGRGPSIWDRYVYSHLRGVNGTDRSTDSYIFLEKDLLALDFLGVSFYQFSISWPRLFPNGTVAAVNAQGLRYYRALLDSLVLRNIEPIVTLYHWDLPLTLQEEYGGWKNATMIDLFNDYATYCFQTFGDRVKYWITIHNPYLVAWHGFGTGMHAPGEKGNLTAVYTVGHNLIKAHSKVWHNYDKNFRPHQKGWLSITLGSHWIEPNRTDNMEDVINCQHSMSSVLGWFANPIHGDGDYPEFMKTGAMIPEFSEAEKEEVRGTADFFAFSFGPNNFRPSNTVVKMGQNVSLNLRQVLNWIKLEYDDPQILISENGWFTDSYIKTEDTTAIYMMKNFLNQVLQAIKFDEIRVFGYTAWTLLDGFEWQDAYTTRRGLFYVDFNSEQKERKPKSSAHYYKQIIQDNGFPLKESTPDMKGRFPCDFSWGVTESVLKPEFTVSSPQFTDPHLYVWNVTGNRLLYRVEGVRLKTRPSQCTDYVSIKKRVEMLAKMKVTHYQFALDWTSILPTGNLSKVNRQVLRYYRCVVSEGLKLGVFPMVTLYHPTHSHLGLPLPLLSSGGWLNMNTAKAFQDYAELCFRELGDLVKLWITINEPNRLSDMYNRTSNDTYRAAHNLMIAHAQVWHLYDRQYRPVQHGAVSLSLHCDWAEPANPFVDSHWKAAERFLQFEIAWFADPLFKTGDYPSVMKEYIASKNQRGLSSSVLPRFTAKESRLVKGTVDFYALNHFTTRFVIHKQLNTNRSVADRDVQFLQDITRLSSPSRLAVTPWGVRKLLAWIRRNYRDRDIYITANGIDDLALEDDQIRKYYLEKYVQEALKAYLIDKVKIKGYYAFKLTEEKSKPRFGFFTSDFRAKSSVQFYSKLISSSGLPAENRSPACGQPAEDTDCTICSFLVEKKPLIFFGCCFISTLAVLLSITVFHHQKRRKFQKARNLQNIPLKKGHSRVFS

B1: MetFGF21 (ligand)
chain: MHPIPDSSPLLQFGGQVRQRYLYTDDAQQTEAHLEIREDGTVGGAADQSPESLLQLKALKPGVIQILGVKTSRFLCQRPDGALYGSLHFDPEACSFRELLLEDGYNVYQSEAHGLPLHLPGNKSPHRDPAPRGPARFLPLPGLPPALPEPPGILAPQPPDVGSSDPLSMVGPSQGRSPSYAS
Glucose uptake EC50 (nM), 3T3-L1 adipocytes [1]: 1.2 nM | EC50 (nM), pERK, HEK293/BKL cells [2]: 1.8 nM

B2: S{Beta-181}-[2-[2-[[2-[2-[2-[[2-[2-[2-[[(4S)-4-carboxy-4-(17-carboxyheptadecanoyl-amino)butanoyl]amino]ethoxy]ethoxy]acetyl]amino]ethoxy]ethoxy]acetyl]amino]-et … (ligand)
chain: B1 chain with S182C
modifications: Cys181 (numbering of mature human FGF21): side chain on the sulfur atom; protractor C18 diacid; reagent of Example 4.5
Glucose uptake EC50 (nM), 3T3-L1 adipocytes [3]: 37 nM | EC50 (0.1% HSA) (nM), pERK, HEK293/BKL cells [4]: 71 nM | EC50 (nM), pERK, HEK293/BKL cells [4]: 16 nM

B3: Ala[Gln121,Leu168,Cys171]FGF21 (ligand)
chain: B1 chain with M1A, N122Q, M169L, P172C
EC50 (nM), pERK, HEK293/BKL cells [5]: 8 nM
